# Measurements taken from patent US20260210971A1 (Pfizer, published 2026).
# Where two headings read alike, the source gives them in different places.
# T1: endogenous TL1A of stimulated human peripheral blood (human, UniProt O95150 72-251, limits assumed)
# T1 sequence (looked up): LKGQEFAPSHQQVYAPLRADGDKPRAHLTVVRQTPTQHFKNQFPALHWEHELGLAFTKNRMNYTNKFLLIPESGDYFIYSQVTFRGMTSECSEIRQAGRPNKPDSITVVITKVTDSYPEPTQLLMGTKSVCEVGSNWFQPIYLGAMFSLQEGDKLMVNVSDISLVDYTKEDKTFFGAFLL
# T2: recombinant soluble rabbit TL1A (rabbit)
# T2 construct: also called rabbit rsTL1A
# T2 chain: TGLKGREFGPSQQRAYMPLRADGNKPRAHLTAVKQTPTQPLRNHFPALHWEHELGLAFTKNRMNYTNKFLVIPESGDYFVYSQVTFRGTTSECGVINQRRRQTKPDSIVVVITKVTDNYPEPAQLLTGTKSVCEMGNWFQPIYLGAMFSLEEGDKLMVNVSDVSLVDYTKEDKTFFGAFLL
# T3: recombinant soluble cynomolgus monkey TL1A (cynomolgus monkey, UniProt O95150 72-251 (human entry))
# T3 construct: also called cyno rsTL1A; cyno TL1A
# T3 chain: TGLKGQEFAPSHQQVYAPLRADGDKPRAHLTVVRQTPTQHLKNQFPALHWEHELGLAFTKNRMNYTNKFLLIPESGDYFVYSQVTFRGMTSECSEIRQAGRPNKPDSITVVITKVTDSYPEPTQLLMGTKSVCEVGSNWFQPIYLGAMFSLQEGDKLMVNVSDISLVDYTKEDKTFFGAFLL
# T4: recombinant soluble murine TL1A (mouse, UniProt Q5UBV8 75-252)
# T4 construct: also called murine rsTL1A; mouse TL1A
# T4 chain: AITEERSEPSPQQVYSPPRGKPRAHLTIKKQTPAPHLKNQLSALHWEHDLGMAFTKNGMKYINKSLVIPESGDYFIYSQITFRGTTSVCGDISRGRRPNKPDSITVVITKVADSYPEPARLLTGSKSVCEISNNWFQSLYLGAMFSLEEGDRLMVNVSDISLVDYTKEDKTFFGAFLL
# T5: recombinant soluble rat TL1A (rat, UniProt Q8K3Y7 76-252)
# T5 construct: also called rat rsTL1A
# T5 sequence: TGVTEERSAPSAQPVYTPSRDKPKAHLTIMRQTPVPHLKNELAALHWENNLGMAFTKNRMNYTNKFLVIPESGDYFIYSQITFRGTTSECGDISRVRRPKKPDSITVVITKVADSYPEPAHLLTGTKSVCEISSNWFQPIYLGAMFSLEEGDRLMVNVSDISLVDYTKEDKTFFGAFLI
# T6: DR3 on TF-1 cells (human, UniProt Q93038 25-417)
# T6 sequence (looked up): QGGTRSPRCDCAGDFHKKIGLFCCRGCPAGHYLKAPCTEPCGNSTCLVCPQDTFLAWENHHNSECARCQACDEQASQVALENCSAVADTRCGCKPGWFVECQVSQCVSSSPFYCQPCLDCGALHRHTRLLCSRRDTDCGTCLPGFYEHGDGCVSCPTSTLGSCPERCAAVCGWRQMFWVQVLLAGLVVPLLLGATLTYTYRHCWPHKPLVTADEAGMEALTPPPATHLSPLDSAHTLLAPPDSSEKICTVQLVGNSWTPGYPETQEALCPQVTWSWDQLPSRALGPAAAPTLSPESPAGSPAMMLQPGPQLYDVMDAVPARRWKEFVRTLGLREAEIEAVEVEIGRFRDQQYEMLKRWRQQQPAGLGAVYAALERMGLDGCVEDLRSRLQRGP
# B1: recombinant soluble human TL1A (ligand)
# chain: ALKGQEFAPSHQQVYAPLRADGDKPRAHLTVVRQTPTQHFKNQFPALHWEHELGLAFTKNRMNYTNKFLLIPESGDYFIYSQVTFRGMTSECSEIRQAGRPNKPDSITVVITKVTDSYPEPTQLLMGTKSVCEVGSNWFQPIYLGAMFSLQEGDKLMVNVSDISLVDYTKEDKTFFGAFLL
# Key:
# [1] = target: T1, endogenous TL1A of stimulated human …; assay: cell-based or functional assay
# [2] = target: B1; assay: cell-based or functional assay
# [3] = target: T2, recombinant soluble rabbit TL1A; assay: SPR, IgG captured on anti-hIgG, TL1A injected
# From the text: (§1) The antibodies were captured via directly immobilized anti-human IgG (GE Healthcare) onto a carboxymethylated dextran sensor chip surface (CM5) using a Biacore T100 or T200 instrument. Anti-human IgG was immobilized through amine coupling to densities of approximately 4,000-13,000 response units (RU). […] At the end of each cycle, the entire anti-hIgG surface was regenerated by a 30-second pulse of 3M MgCl₂ followed by two consecutive 15-second pulses of PBS-NET. […] All injections were performed at 25° C. at a collection rate of 10 Hz. All sensorgrams were double referenced by using both a control surface and buffer injections. Rate constants were determined by fitting the data to a 1:1 model in Biacore T100, T200 evaluation software v1.0, or BIAevaluation software v4.1.1 and the equation KD=Kd/kₐ.
# (§2) At the highest cytokine concentrations, the dissociation phase was sometimes extended to 60 minutes to achieve at least a 5% decrease in binding signal.
# [4] = target: B1; assay: SPR, IgG captured on anti-hIgG, TL1A injected; off rate too slow to measure;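 as to t1/2: biacore surface plasmon resonance on a dextran sensor chip, double-referenced sensorgrams fitted to a one-to-one binding model, KD taken as dissociation over association rate constant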
# [5] = target: T3, recombinant soluble cynomolgus monkey …; assay: SPR, IgG captured on anti-hIgG, TL1A injected;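 as to t1/2: biacore surface plasmon resonance on a dextran sensor chip, double-referenced sensorgrams fitted to a one-to-one binding model, KD taken as dissociation over association rate constant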
# From the text: as §1, §2
# [6] = target: T4, recombinant soluble murine TL1A; assay: SPR, IgG captured on anti-hIgG, TL1A injected;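 as to koff: biacore measurement on a carboxymethylated dextran chip, double-referenced against a control surface and buffer, rates fitted to a one-to-one binding model, KD from koff over kon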;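 as to kon: biacore measurement on a carboxymethylated dextran chip, double-referenced against a control surface and buffer, rates fitted to a one-to-one binding model, KD from koff over kon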
# [7] = target: B1; assay: KinExA, equilibrium in solution
# Method: This assay involves pre-incubating antibody: antigen mixtures in solution long enough to reach equilibrium before measuring the level of unbound antibody using a solid phase component. […] Beads were blocked for 1 hour with PBS plus 10 mg/ml bovine serum albumin (bovine serum albumin, Sigma) at room temperature before being diluted up to a total of 27 ml in PBS. […] For each titration series, a buffer sample and a sample of antibody alone were included. Each antibody: TL1A mixture was tumbled at room temperature for at least six hours to reach equilibrium and then each mixture was injected over the solid phase of TL1A-coated beads in the instrument flow cell. […] Beads were replenished between each sample. Binding signals of detected free antibody were converted to percentage of free, unbound antibody as measured by the antibody only sample and plotted versus each concentration of TL1A. For each antibody, the KD and ABC controlled curves were fit simultaneously using n-Curve Analysis software v3.1.4 to fit the curves to the ‘affinity, unknown ligand’ model and measure an equilibrium KD.
# Solution-based kinetic exclusion assays (KinExA) were carried out as an orthogonal technique to measure equilibrium KD values.
# [8] = target: T5, recombinant soluble rat TL1A; assay: SPR, IgG captured on anti-hIgG, TL1A injected
# From the text: as §1, §2
# [9] = target: B1; assay: binding test of the 1D1 point mutants, method not named
# [10] = target: B1; assay: SPR, IgG captured on anti-hIgG, TL1A injected;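 as to t1/2: biacore surface plasmon resonance on a dextran sensor chip, double-referenced sensorgrams fitted to a one-to-one binding model, KD taken as dissociation over association rate constant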
# Method: Biacore analysis was performed using T-200 biosensor, series S CM5 chips and approximately 4000 RU (response units) of an anti-human IgG (GE Healthcare), immobilized in 10 mM sodium acetate immobilization buffer at pH 5.0. Assay conditions were established to minimize the influence of mass transfer, avidity, and rebinding events, as described below. A blank immobilization was carried out on a separate flow cell for reference subtraction. The purified IgGs were diluted in running buffer (PBS, 300 mM sodium chloride, 3.2 mM ethylenediaminetetraacetic acid, 0.01% Tween20) and low levels (<30 RU) captured using a flow rate of 100 μl/min for 2 min, to reduce possible rebinding by the trimeric TL1A. […] Reference-subtracted sensorgrams for each concentration were analyzed using Biacore T-200 evaluation software (v1.0).
# [11] = target: T4, recombinant soluble murine TL1A; assay: SPR, IgG captured on anti-hIgG, TL1A injected;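 as to koff: biacore measurement on a carboxymethylated dextran chip, double-referenced against a control surface and buffer, rates fitted to a one-to-one binding model, KD from koff over kon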;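 as to kon: biacore measurement on a carboxymethylated dextran chip, double-referenced against a control surface and buffer, rates fitted to a one-to-one binding model, KD from koff over kon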
# [12] = target: T3, recombinant soluble cynomolgus monkey …; assay: SPR, IgG captured on anti-hIgG, TL1A injected;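 as to t1/2: biacore surface plasmon resonance on a dextran sensor chip, double-referenced sensorgrams fitted to a one-to-one binding model, KD taken as dissociation over association rate constant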
# [13] = target: B1; assay: SPR, IgG captured on anti-hIgG, TL1A injected; remark: listed apart in the source
# DR3 on TF-1 cells = target: T6, DR3 on TF-1 cells; assay: cell-based or functional assay
binder,measurement,setting,value
"1D1 1.27 (antibody, human IgG1, kappa, V domains shown, Expressed as IgG1) VH: QVQLVQSGAEVKKPGASVKVSCKASGYDFTYYGISWVRQAPGQGLEWMGWISTYNGNTHYARMLQGRVTMTTDTSTRTAYMELRSLRSDDTAVYYCARENYYGSGSYRGGMDVWGQGTTVTVSS VL: EIVLTQSPATLSLSPGERATLSCRASQSVSSYLAWYQQKPGQAPRLLIYDASNRATGIPARFSGSGSGTDFTLTISSLEPEDFAVYYCQQRSNWPWTFGQGTKVEIKR","HWB Assay, average IC50",[1],0.000968 nM
same,"Caspase Assay, average IC50",[2],0.0702 nM
same,"NFkB Assay, average IC50",[2],0.14 nM
same,Kd,[3],0.478 nM
same,koff,[3],0.00014 s⁻¹
same,kon,[3],300000 M⁻¹ s⁻¹
same,t1/2,[3],82.1 min
same,Kd,[4],< 0.1 nM
same,Kd,[5],0.22 nM
same,koff,[5],8e-05 s⁻¹
same,kon,[5],390000 M⁻¹ s⁻¹
same,t1/2,[5],141 min
same,Kd,[6],1.64 nM
same,koff,[6],0.00043 s⁻¹
same,kon,[6],270000 M⁻¹ s⁻¹
same,t1/2,[6],26.9 min
same,Kd,[7],0.00769 nM
same,Kd,[8],10.9 nM
same,koff,[8],0.0072 s⁻¹
same,kon,[8],670000 M⁻¹ s⁻¹
same,t1/2,[8],1.6 min
"1D1 with heavy chain mutation S28D (antibody, V domains shown, Point mutant of 1D1 CDR-H1) VH: QVQLVQSGAEVKKPGASVKVSCKASGYDFTYYGISWVRQAPGQGLEWMGWISTYNGNTNYARMLQGRVTMTTDTSTRTAYMELRSLRSDDTAVYYCARENYYGSGSYRGGMDVWGQGTTVTVSS VL: EIVLTQSPATLSLSPGERATLSCRASQSVSSYLAWYQQKPGQAPRLLIYDASNRATGIPARFSGSGSGTDFTLTISSLEPEDFAVYYCQQRSNWPWTFGQGTKVEIK",Kd,[9],0.42 nM
"1D1 D37 (antibody, IgG1, V domains shown, same light chain as 1D1; also called 1D1-VH-37) VH: QVQLVQSGAEVKKPGASVKVSCKASGYSFTYYGISWVRQAPGQGLEWMGWISTYNGGTHYARMLQGRVTMTTDTSTRTAYMELRSLRSDDTAVYYCARENYYGSGSYRGGMDVWGQGTTVTVSS VL: EIVLTQSPATLSLSPGERATLSCRASQSVSSYLAWYQQKPGQAPRLLIYDASNRATGIPARFSGSGSGTDFTLTISSLEPEDFAVYYCQQRSNWPWTFGQGTKVEIKR",Kd,[10],0.326 nM
same,koff,[10],0.00035 s⁻¹
same,kon,[10],1.26e+06 M⁻¹ s⁻¹
same,Kd,[11],0.787 nM
same,Kd,[12],0.335 nM
same,Kd,[13],0.305 nM
"1D1 DH3 (antibody, V domains shown, IgG with triple mutant Fc as for 1D1 D37) VH: QVQLVQSGAEVKKPGASVKVSCKASGYSFTYYGISWVRQAPGQGLEWMGWISTYNGNTHYAQMLQGRVTMTTDTSTRTAYMELRSLRSDDTAVYYCARENYYGSGSYRGGMDVWGQGTTVTVSS VL: EIVLTQSPATLSLSPGERATLSCRASQSVSSYLAWYQQKPGQAPRLLIYDASNRATGIPARFSGSGSGTDFTLTISSLEPEDFAVYYCQQRSNWPWTFGQGTKVEIKR",Kd,[10],0.412 nM
same,koff,[10],0.00102 s⁻¹
same,kon,[10],2.49e+06 M⁻¹ s⁻¹
same,Kd,[11],0.62 nM
same,Kd,[12],0.675 nM
same,Kd,[13],0.56 nM
"1D1 with heavy chain mutation S28Q (antibody, V domains shown, Point mutant of 1D1 CDR-H1) VH: QVQLVQSGAEVKKPGASVKVSCKASGYQFTYYGISWVRQAPGQGLEWMGWISTYNGNTNYARMLQGRVTMTTDTSTRTAYMELRSLRSDDTAVYYCARENYYGSGSYRGGMDVWGQGTTVTVSS VL: EIVLTQSPATLSLSPGERATLSCRASQSVSSYLAWYQQKPGQAPRLLIYDASNRATGIPARFSGSGSGTDFTLTISSLEPEDFAVYYCQQRSNWPWTFGQGTKVEIK",Kd,[9],6.8 nM
"1D1 D39 (antibody, V domains shown, IgG with triple mutant Fc as for 1D1 D37) VH: QVQLVQSGAEVKKPGASVKVSCKASGYSFTYYGISWVRQAPGQGLEWMGWISTYNGNTNYARMLQGRVTMTTDTSTRTAYMELRSLRSDDTAVYYCARENYYGSGAYRGGMDAWGQGTTVTVSS VL: EIVLTQSPATLSLSPGERATLSCRASQSVSSYLAWYQQKPGQAPRLLIYDASNRATGIPARFSGSGSGTDFTLTISSLEPEDFAVYYCQQRSNWPWTFGQGTKVEIKR",Kd,[10],0.442 nM
same,koff,[10],0.000355 s⁻¹
same,kon,[10],784000 M⁻¹ s⁻¹
same,Kd,[11],0.613 nM
same,Kd,[12],0.396 nM
same,Kd,[13],0.441 nM
"1D1 with heavy chain mutation Y31H (antibody, V domains shown, Point mutant of 1D1 CDR-H1) VH: QVQLVQSGAEVKKPGASVKVSCKASGYSFTHYGISWVRQAPGQGLEWMGWISTYNGNTNYARMLQGRVTMTTDTSTRTAYMELRSLRSDDTAVYYCARENYYGSGSYRGGMDVWGQGTTVTVSS VL: EIVLTQSPATLSLSPGERATLSCRASQSVSSYLAWYQQKPGQAPRLLIYDASNRATGIPARFSGSGSGTDFTLTISSLEPEDFAVYYCQQRSNWPWTFGQGTKVEIK",Kd,[9],12.7 nM
"1D1 D24 (antibody, V domains shown, IgG with triple mutant Fc as for 1D1 D37) VH: QVQLVQSGAEVKKPGASVKVSCKASGYSFTYYGISWVRQAPGQGLEWMGWISPYNGNTHYARMLQGRVTMTTDTSTRTAYMELRSLRSDDTAVYYCARENYYGSGSYRGGMDVWGQGTTVTVSS VL: EIVLTQSPATLSLSPGERATLSCRASQSVSSYLAWYQQKPGQAPRLLIYDASNRATGIPARFSGSGSGTDFTLTISSLEPEDFAVYYCQQRSNWPWTFGQGTKVEIKR",Kd,[10],0.394 nM
same,koff,[10],0.000806 s⁻¹
same,kon,[10],2.04e+06 M⁻¹ s⁻¹
same,Kd,[11],0.804 nM
same,Kd,[12],0.943 nM
same,Kd,[13],0.932 nM
"1D1 D38 (antibody, V domains shown, IgG with triple mutant Fc as for 1D1 D37) VH: QVQLVQSGAEVKKPGASVKVSCKASGYSFTYYGISWVRQAPGQGLEWMGWISTYNGVTHYARMLQGRVTMTTDTSTRTAYMELRSLRSDDTAVYYCARENYYGSGSYRGGMDVWGQGTTVTVSS VL: EIVLTQSPATLSLSPGERATLSCRASQSVSSYLAWYQQKPGQAPRLLIYDASNRATGIPARFSGSGSGTDFTLTISSLEPEDFAVYYCQQRSNWPWTFGQGTKVEIKR",Kd,[10],0.44 nM
same,koff,[10],0.000463 s⁻¹
same,kon,[10],1.05e+06 M⁻¹ s⁻¹
same,Kd,[11],1.29 nM
same,Kd,[12],0.611 nM
same,Kd,[13],0.687 nM
B1,"NFκB-luciferase activity in TF-1-NFκB-luciferase cells, EC50",DR3 on TF-1 cells,0.149 nM
same,"NFκB-luciferase activity, EC50 in the absence of isotype control antibody",DR3 on TF-1 cells,0.103 nM
same,"NFκB-luciferase activity, EC50 in the presence of isotype control antibody",DR3 on TF-1 cells,0.11 nM
same,"caspase activity in TF-1 cells with cycloheximide, EC50",DR3 on TF-1 cells,0.09 nM
